From publication PMC5839780 (The Journal of Cell Biology, 2018)
Positions count from the first letter of the chain named.

T1: HMmm1s–Mdm12 complex (K. lactis) (Kluyveromyces lactis, UniProt Q6CJU9+Q6CUC3)
T1 sequence (Q6CJU9 179-434): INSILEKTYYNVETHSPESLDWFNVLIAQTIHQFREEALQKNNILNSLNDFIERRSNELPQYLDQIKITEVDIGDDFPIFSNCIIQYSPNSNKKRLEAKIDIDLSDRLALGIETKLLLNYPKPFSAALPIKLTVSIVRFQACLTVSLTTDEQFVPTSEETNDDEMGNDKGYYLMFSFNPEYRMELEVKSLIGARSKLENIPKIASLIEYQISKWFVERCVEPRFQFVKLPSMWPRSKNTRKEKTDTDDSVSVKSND
T1 sequence (Q6CUC3 1-239): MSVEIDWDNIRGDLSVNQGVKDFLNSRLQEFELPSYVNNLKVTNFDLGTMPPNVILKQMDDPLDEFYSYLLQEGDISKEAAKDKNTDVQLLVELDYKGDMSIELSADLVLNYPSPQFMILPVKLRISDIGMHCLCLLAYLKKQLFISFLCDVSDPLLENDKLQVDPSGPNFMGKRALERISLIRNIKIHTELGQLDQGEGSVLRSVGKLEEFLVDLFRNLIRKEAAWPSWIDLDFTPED

T2: N-terminally His6-tagged K. lactis Mmm1s (179–434) L274S (Kluyveromyces lactis, UniProt Q6CJU9 179-434, L274S)
T2 sequence (looked up): T1 sequence (Q6CJU9 179-434) with L96S

T3: N-terminally His6-tagged K. lactis Mmm1s (179–434) V190S (Kluyveromyces lactis, UniProt Q6CJU9 179-434, V190S)
T3 sequence (looked up): T1 sequence (Q6CJU9 179-434) with V12S

T4: N-terminally His6-tagged K. lactis Mmm1s (179–434) I369S (Kluyveromyces lactis, UniProt Q6CJU9 179-434, I369S)
T4 sequence (looked up): T1 sequence (Q6CJU9 179-434) with I191S

B1: KlMdm12 (residues 1–239 of K. lactis Mdm12), nontagged (domain or fragment, Kluyveromyces lactis, UniProt Q6CUC3 1-239, looked up)
chain: T1 sequence (Q6CUC3 1-239)

Tests used:
[1] = target: T1, HMmm1s–Mdm12 complex (K. lactis); assay: NBD dequenching lipid transfer between liposomes; assay type: biochemical; conditions: 12.5 µM donor and 50 µM acceptor liposomes; pH 7.5; labelled compound
[2] = target: T2, N-terminally His6-tagged K. lactis …; assay: co-purification of a coexpressed complex
[3] = target: T3, N-terminally His6-tagged K. lactis …; assay: co-purification of a coexpressed complex
[4] = target: T4, N-terminally His6-tagged K. lactis …; assay: co-purification of a coexpressed complex

Row | Molecule | NBD-PS transferred after 10 s [1] | binding result [2] | binding result [3] | binding result [4]
1 | CCCCCCCC/C=C\CCCCCCCC(=O)OC[C@H](COP(=O)(O)OC[C@H](Nc1ccc([N+](=O)[O-])c2nonc12)C(=O)O)OC(=O)CCCCCCC/C=C\CCCCCCCC [NBD-PS, 1,2-dioleoyl-sn-glycero-3-phospho-L-serine-N-(7-nitro-2-1,3-benzoxadiazol-4-yl)] | Efficiency of NBD-PS transfer between liposomes by HMmm1s–Mdm12 was threefold higher |  |  | 
2 | B1 |  | binds | binds | binds
